Assays:
[1] = biological target: T1, full-length βAPP (βAPP751 cDNA, in HEK293 cells) (UniProt P05067-8 18-751, limits assumed); test: immunoprecipitation of HEK293 cell lysate proteins with anti-cystatin C antibody, immunoblot with 22C11
T1 construct: whole, on cells; Tested by co-immunoprecipitation from cell lysates, not on intact cells; also called β amyloid precursor protein; cell associated full-length βAPP
Description: Media was replaced 16 hours after transient transfection, harvested 24 hours later, and spun at 4,500×g for 10 minutes at 4° C. Cells were harvested in RIPA buffer (1% NP-40, 0.5% cholic acid, 0.1% SDS; 150 mM NaCl, 10 mM Tris-HCl, pH 8.0) with protease inhibitors (7.5 μg/ml Aprotinin; 5 μg/ml leupeptin; 2 mM PMSF) and centrifuged for 5 minutes at 10,000 rpm at 4° C. Cellular and secreted proteins were immunoprecipitated with either polyclonal antibodies and Protein A Sepharose (Pharmacia Biotech) for 4 hours at 4° C. or with monoclonal antibodies overnight at 4° C. and with GammaBind Plus Sepharose beads (Pharmacia Biotech) for 2 hours at 4° C.
The interaction of cystatin C with βAPP was examined in HEK293 cells stably expressing either wild type or variant cystatin C genes, and transiently transfected with either wild type βAPP or vector cDNAs. […] The data indicates binding between cystatin C and cell associated full-length as well as sβAPP.

Aβ1-40 synthetic peptide = biological target: T2, Aβ1-40 synthetic peptide (UniProt P05067 672-711); test: ELISA, Aβ1-40-coated wells, 0-37.5 nM cystatin C
T2 construct: domain: Aβ1-40; Coated on microtiter wells, freshly dissolved; also called Aβ40
Description: (§1) Two different batches of each peptide were used in the experiments. Wild type and variant cystatin C, purified from conditioned media as described above, were compared to urinary cystatin C (Calbiochem Biosciences). Polystyrene microtiter plates (Immunolon 2; Dynex Technology) were coated for 16 hours at 4° C. with freshly dissolved Aβ peptides (400 ng in 100 µl of NaHCO_3 $pH$ 9.6 per well). After blocking with 200 µl Superblock (Pierce), increasing concentrations of either wild type, variant or urinary cystatin C (0-37.5 nM) in 100 µl TBS-T (20 mM Tris-HCl, 150 mM NaCl pH 7.4, containing 0.1% Tween-20) were added to the Aβ-coated wells and incubated for 3 hours at 37° C. Bound cystatin C was detected with 100 µl polyclonal anti-cystatin C antibody (1:600) followed by 100 µl horseradish peroxidase-conjugated F(ab')2 anti-rabbit IgG (1:4000, Amersham) and developed using 100 µl 3,3',5,5'-tetramethyl-benzidine as substrate; Absorbency was read at 450 nm after stopping the reaction with 100 µl 2.5N sulfuric acid. Non-linear regression analysis, estimation of dissociation constants and comparison of protein binding data were assessed for statistical significance with GraphPad Prism software (GraphPad, San Diego, Calif., USA). P values were calculated by one-way ANOVA of three independent repeated measures of duplicate samples. […]

Aβ1-42 synthetic peptide = biological target: T3, Aβ1-42 synthetic peptide (UniProt P05067 672-713); test: ELISA, Aβ1-42-coated wells, 0-37.5 nM cystatin C
T3 construct: domain: Aβ1-42; Coated on microtiter wells, freshly dissolved; Also used in the fibril and oligomerization assays; also called Aβ42
Description: as §1

Measured: binding result

B1: variant human cystatin C (L68Q, HCHWA-I variant) (other, UniProt P01034 27-146, looked up)
chain: SSPGKPPRLVGGPMDASVEEEGVRRALDFAVGEYNKASNDMYHSRALQVVRARKQIVAGVNYFLDVEQGRTTCTKTQPNLDNCPFHDQPHLKRKAFCSFQIYAVPWQGTMTLSKSTCQDA
notes: mature; Position 68 counts on the mature protein, not on the precursor with signal peptide; also called cystatin C-V; CysC-V
binds: all assays above

Reference: patent US7790673 (NEW YORK UNIVERSITY, dated 2010)
